In experiment [1] the target is human Y2 receptor C-terminally fused to EYFP (human) (UniProt P49146).
For experiment [2], the target named is human Y1 receptor C-terminally fused to EYFP (human) (UniProt P25929).
The target in experiment [3] is human Y2 receptor C-terminally fused to EYFP (human) (UniProt P49146). This is another data set of the same source.

NPY (ligand) showed an EC50, functional IP3 second messenger assay in experiment [1] of 0.5 nM. Moreover, the values for the EC50, functional CRE reporter gene assay in experiment [2] and in experiment [3] were 0.77 nM and 0.87 nM, respectively.

Source of the values: US20150238626A1, “RECEPTOR LIGAND LINKED CYTOTOXIC MOLECULES” (ONTOCHEM GMBH, priority 2012, published 2015).
